2 molecules from patent US20060275780, “Cross-linking reagents and uses thereof” (Beckman Coulter, Inc., published 2006) can be followed below.

For data set [1], the target named is T1, FGFb (fibroblast growth factor-basic, bFGF, FGF2) (UniProt P09038 P09038:143-288). Description: printed aptamer array; stated to bind as tightly as the BrdU aptamer; cross-linking avidity lower (curve shifted right) after 1N NaOH 1% SDS. The protocol:
FGFb bindings by bFGF photoaptamer and bFGF native aptamer (GCGAAGGCACACCGAGTTCATAGTATCCCA; SEQ ID NO:2) were compared. Referring to FIG. 3, * denotes PICUP-like cross-linking (the left two columns), while the remaining wells represent non-covalent ligand capture (the right two columns). Samples in plates 1* and 7 were treated with 1N NaOH, 1% SDS to remove the non-covalently bound ligand.
This hypothesis was tested by titrating increasing concentrations of FGFb against the two aptamers and plotting binding curves. Referring to FIG. 4, in the left panel, the two left hand side columns of each array were printed with bFGF photoaptamer, while the two right hand side columns were printed with bFGF native aptamer. The eighteen arrays in the left panel were cross-linked using a PICUP-like protocol, whereas the six arrays in the right panel represent non-covalent binding. All wells were treated with 1N NaOH, 1% SDS to strip the non-covalently bound ligand. The displacement of the bFGF native aptamer binding curve (diamonds) to the right of the bFGF photoaptamer curve (squares) confirmed that the cross-linking avidity of the bFGF native aptamer is lower than its BrdU-modified bFGF photoaptamer analog (FIG. 5).

The target in data set [2] is T1, FGFb (fibroblast growth factor-basic, …). Description: Ru(bpy)3 2+/APS visible-light cross-linking; urea gel and printed aptamer array with anti-FGF ELF detection; complex stable to 1N NaOH 1% SDS when cross-linked. The text has this: bFGF photoaptamer (GCG AAG GCA CAC CGA GXX CAX AGX AXC CCA, where X=BrdU; SEQ ID NO:1) was mixed with FGFb ligand overnight to achieve maximal aptamer-ligand binding. White light-mediated photolysis of tris-bipyridylruthenium (II) complex was employed to cross-link the aptamer to the ligand in the presence of APS. The solution was then boiled in the presence of urea-SDS to dissociate bound but uncross-linked ligand from the aptamer. The mixture was subsequently applied to a urea slab gel to separate free aptamer from the cross-linked aptamer-ligand complex by electrophoresis. SYBR Gold staining was used to determine the presence of the aptamer, while double-staining with silver stain was used to determine the presence of the ligand. Referring to FIG. 1, the test sample consisted of bFGF photoaptamer and fibroblast growth factor-basic (FGFb) ligand; the control sample consisted of only bFGF photoaptamer. The test and control samples were incubated overnight prior to PICUP (photo-induced cross-linking of unmodified proteins)-like cross-linking. The samples (12 ul/each) were run on a 6% TBE-urea gel. […] Both the test and control samples were subject to denaturing conditions (100° C. for 5 minutes in TBE-urea sample buffer) prior to electrophoresis.
In FIG. 2, FGFb ligand was applied to an array of aptamers and incubated for 48 hours to achieve maximal binding. […]

T1 sequence (P09038 143-288, one chain of several): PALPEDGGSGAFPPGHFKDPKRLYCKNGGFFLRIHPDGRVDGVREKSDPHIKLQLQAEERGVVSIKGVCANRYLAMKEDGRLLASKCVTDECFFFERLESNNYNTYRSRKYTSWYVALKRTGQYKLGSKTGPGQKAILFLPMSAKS

As for GCGAAGGCACACCGAGTTCATAGTATCCCA (ssDNA) [bFGF native aptamer], the binding result in data set [1] is listed as “binds”.

B1: bFGF photoaptamer (ssDNA)
DNA: GCGAAGGCACACCGAGTTCATAGTATCCCA
modifications: BrdU at the five n positions (17, 18, 22, 25, 27), replacing T [n positions 17,18,21,24,26 = modified dU]
Turning to B1, the binding result in data set [2] is reported as “binds”.
